The test has as its target T1, Bovine Serum Albumin (bovine, UniProt P02769 25-607).
T1 construct: also called BSA
The test can be described thus: ELISA, antigen coated on plate, phage-displayed Fab. (ELISA stands for enzyme-linked immunosorbent assay.)

T1 sequence (P02769 25-607 limits assumed): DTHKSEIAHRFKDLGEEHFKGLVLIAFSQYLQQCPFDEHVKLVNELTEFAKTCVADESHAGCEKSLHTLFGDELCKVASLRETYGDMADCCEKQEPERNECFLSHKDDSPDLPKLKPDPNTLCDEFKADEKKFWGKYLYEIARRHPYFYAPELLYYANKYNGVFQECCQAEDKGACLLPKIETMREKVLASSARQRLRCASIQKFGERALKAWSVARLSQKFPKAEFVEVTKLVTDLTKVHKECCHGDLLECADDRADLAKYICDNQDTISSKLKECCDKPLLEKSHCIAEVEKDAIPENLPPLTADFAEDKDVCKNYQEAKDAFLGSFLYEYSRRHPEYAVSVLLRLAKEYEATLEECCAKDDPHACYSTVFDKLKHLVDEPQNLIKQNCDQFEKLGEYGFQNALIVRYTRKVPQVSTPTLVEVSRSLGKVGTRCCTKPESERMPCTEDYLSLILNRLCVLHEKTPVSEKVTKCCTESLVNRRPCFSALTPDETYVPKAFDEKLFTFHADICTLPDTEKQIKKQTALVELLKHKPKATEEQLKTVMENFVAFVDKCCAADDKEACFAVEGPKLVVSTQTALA

B1: human Fab DDF-RuV2 (Fab, V domains shown)
VH: LESGGGVVQPGRSLRLSCAASGFTFSTYGMHWVRQAPGKGLEWVAVVSYDGTKEYYSDSVKGRFTISRDNSKKMVYLQMNSLRAEDTAVYYCAKEPPRRGFYWYFDYWGQGTLVTVSS
VL: ELTQSPSSLSASVGDRVTITCRASQDISNYLAWFQQRPGKVPNLLIYAASTLQSGVPSRFSGSGSGTEFTLTISSLQPEDGASYYCQKYDGAPWTFGQGTKVEIKR
As to B1, the binding result was “no binding”.

B2: human Fab DDF-RuV1 (Fab, V domains shown)
VH: LEQSGAEVKKPGENLKISCEASGYNFVNHWIGWVRQMPGRGLEWMGRIYPGDSETRFSPSFQGQVTISVDKTLSTASLQWNSLKTSDSATYYCVTLGRWSSWQGGALSWGQGTRVIVSS
VL: ELTQSPDSLAVSLGERATINCKSSQSILSTSKNKNYLAWYQQKPGQPPKLLIYWASTREDGVPDRFSGSGAGTDFSLTISSLQAEDVAVYYCQQRRSWPPTFGQGTKLEIKR
Consider B2, for which the binding result is given as “no binding”.

The values are drawn from patent US20100143376A1 (RIBOVAX BIOTECHNOLOGIES S A, published 2010).
